Here are results for nine variants from FireProtDB (doi:10.1016/j.bpc.2008.09.020).

Sequences and labels used below:
B1: Cytochrome c-551, P00099 (parent)
chain: MKPYALLSLLATGTLLAQGAWAEDPEVLFKNKGCVACHAIDTKMVGPAYKDVAAKFAGQAGAEAELAQRIKNGSQGVWGPIPMPPNAVSDDEAQTLAKWVLSQK

The data set covers variants of B1. The note with it: Pseudomonas aeruginosa (strain ATCC 15692 / DSM 22644 / CIP 104116 / JCM 14847 / LMG 12228 / 1C / PRS 101 / PAO1), 25 °C, GdnHCl, CD, Sodium acetate 20 mM, structure 451C, whole UniProt chain shown.

On to MKPYALLSLLATGTLLAQGAWAEDPEVLFKNKGCVACHAIDTKMVGPAYKDVAAKYAGQAGAEAELAQRIKNGSQGVWGPIPMPPNAVSDDEAQTLAKWVLSQK, for which, for the setting “pH 3.6”, the “ddG of mutation (higher = less stable)” value was -0.28 kcal/mol, the denaturant m value worked out at 2.76 kcal/mol/M, the “denaturant midpoint (higher = more stable)” value (shortened to “denaturant midpoint”) was found to be 1.6 M and the unfolding free energy was 4.41 kcal/mol. In addition, under “pH 5”, the “ddG of mutation (higher = less stable)” value is -1.33 kcal/mol, the denaturant m value was 2.67 kcal/mol/M, the “denaturant midpoint” value stood at 2.54 M and the unfolding free energy is 6.78 kcal/mol.

In the case of MKPYALLSLLATGTLLAQGAWAEDPEVLAKNKGCMACHAIDTKMVGPAYKDVAAKYAGQAGAEAYLAQRIKNGSQGVWGPIPMPPNAVSDDEAQTLAKWILSQK, for the setting “pH 3.6”, the “ddG of mutation (higher = less stable)” value is -3.34 kcal/mol, the denaturant m value turned out to be 2.54 kcal/mol/M, the “denaturant midpoint” value was 2.95 M and the unfolding free energy came out at 7.48 kcal/mol. For the setting “pH 5”, the “ddG of mutation (higher = less stable)” value is -4.78 kcal/mol, the denaturant m value came out at 2.44 kcal/mol/M, the “denaturant midpoint” value turned out to be 4.2 M and the unfolding free energy was 10.2 kcal/mol.

Take MKPYALLSLLATGTLLAQGAWAEDPEVLFKNKGCVACHAIDTKMVGPAYKDVAAKFAGQAGAEAYLAQRIKNGSQGVWGPIPMPPNAVSDDEAQTLAKWVLSQK: where the note is “pH 3.6”, the “ddG of mutation (higher = less stable)” value was -0.09 kcal/mol, the denaturant m value came to 2.88 kcal/mol/M, the “denaturant midpoint” value was 1.46 M and the unfolding free energy is 4.23 kcal/mol. Where the note is “pH 5”, the “ddG of mutation (higher = less stable)” value was -1.13 kcal/mol, the denaturant m value turned out to be 3.1 kcal/mol/M, the “denaturant midpoint” value worked out at 2.12 M and the unfolding free energy came out at 6.57 kcal/mol.

For MKPYALLSLLATGTLLAQGAWAEDPEVLAKNKGCMACHAIDTKMVGPAYKDVAAKFAGQAGAEAELAQRIKNGSQGVWGPIPMPPNAVSDDEAQTLAKWVLSQK, where the note is “pH 3.6”, the “ddG of mutation (higher = less stable)” value is -1.45 kcal/mol, the denaturant m value was found to be 2.56 kcal/mol/M, the “denaturant midpoint” value came out at 2.18 M and the unfolding free energy turned out to be 5.58 kcal/mol. Besides, where the note is “pH 5”, the “ddG of mutation (higher = less stable)” value was -1.92 kcal/mol, the denaturant m value stood at 2.57 kcal/mol/M, the “denaturant midpoint” value came out at 2.87 M and the unfolding free energy amounted to 7.37 kcal/mol.

Turning to MKPYALLSLLATGTLLAQGAWAEDPEVLFKNKGCVACHAIDTKMVGPAYKDVAAKYAGQAGAEAYLAQRIKNGSQGVWGPIPMPPNAVSDDEAQTLAKWVLSQK, for the setting “pH 3.6”, the “ddG of mutation (higher = less stable)” value was -0.72 kcal/mol, the denaturant m value stood at 2.7 kcal/mol/M, the “denaturant midpoint” value came out at 1.8 M and the unfolding free energy was 4.85 kcal/mol. Besides, under “pH 5”, the “ddG of mutation (higher = less stable)” value was -2.27 kcal/mol, the denaturant m value is 2.68 kcal/mol/M, the “denaturant midpoint” value amounted to 2.88 M and the unfolding free energy is 7.71 kcal/mol.

In the case of MKPYALLSLLATGTLLAQGAWAEDPEVLAKNKGCMACHAIDTKMVGPAYKDVAAKYAGQAGAEAYLAQRIKNGSQGVWGPIPMPPNAVSDDEAQTLAKWVLSQK, for the setting “pH 3.6”, the “ddG of mutation (higher = less stable)” value is -2.39 kcal/mol, the denaturant m value is 2.52 kcal/mol/M, the “denaturant midpoint” value is 2.59 M and the unfolding free energy worked out at 6.52 kcal/mol. Besides, where the note is “pH 5”, the “ddG of mutation (higher = less stable)” value is -3.76 kcal/mol, the denaturant m value stood at 2.43 kcal/mol/M, the “denaturant midpoint” value was determined as 3.78 M and the unfolding free energy was 9.21 kcal/mol.

For the variant MKPYALLSLLATGTLLAQGAWAEDPEVLFKNKGCVACHAIDTKMVGPAYKDVAAKFAGQAGAEAELAQRIKNGSQGVWGPIPMPPNAVSDDEAQTLAKWILSQK, under “pH 3.6”, the “ddG of mutation (higher = less stable)” value is -1.05 kcal/mol, the denaturant m value is 2.74 kcal/mol/M, the “denaturant midpoint” value was determined as 1.89 M and the unfolding free energy worked out at 5.18 kcal/mol. Where the note is “pH 5”, the “ddG of mutation (higher = less stable)” value was -1.49 kcal/mol, the denaturant m value is 2.74 kcal/mol/M, the “denaturant midpoint” value amounted to 2.53 M and the unfolding free energy stood at 6.93 kcal/mol.

Turning to MKPYALLSLLATGTLLAQGAWAEDPEVLAKNKGCMACHAIDTKMVGPAYKDVAAKFAGQAGAEAELAQRIKNGSQGVWGPIPMPPNAVSDDEAQTLAKWILSQK, under “pH 3.6”, the “ddG of mutation (higher = less stable)” value is -1.9 kcal/mol, the denaturant m value came out at 2.45 kcal/mol/M, the “denaturant midpoint” value was 2.46 M and the unfolding free energy is 6.04 kcal/mol. Moreover, under “pH 5”, the “ddG of mutation (higher = less stable)” value was -2.29 kcal/mol, the denaturant m value was 2.47 kcal/mol/M, the “denaturant midpoint” value was found to be 3.13 M and the unfolding free energy came out at 7.74 kcal/mol.

As to MKPYALLSLLATGTLLAQGAWAEDPEVLFKNKGCVACHAIDTKMVGPAYKDVAAKYAGQAGAEAYLAQRIKNGSQGVWGPIPMPPNAVSDDEAQTLAKWILSQK, under “pH 3.6”, the “ddG of mutation (higher = less stable)” value is -1.63 kcal/mol, the denaturant m value amounted to 2.57 kcal/mol/M, the “denaturant midpoint” value was 2.25 M and the unfolding free energy amounted to 5.77 kcal/mol. Besides, for the setting “pH 5”, the “ddG of mutation (higher = less stable)” value was -2.95 kcal/mol, the denaturant m value was 2.44 kcal/mol/M, the “denaturant midpoint” value stood at 3.44 M and the unfolding free energy stood at 8.39 kcal/mol.
